Assay: soluble on expression in E. coli; label from the status in PepcDB or PDB records

Sequence | soluble on expression in E. coli
MSTAAETTGGDIEPWEEVTPDAARRLLVAAVEAFAERGYHATTTRDIAGRAGMSPAALYIHYKTKEELLHRISRIGHTRAVAILRSAAQGEGSAAERLADAVSSFVRWHAGRRTTARVVQYELDALGPEAREEILTLRRQCDAAVRGIIDDGVAAGEFDVPDVKGTTLAVLSLCIDVARWFNVNGPRTPDEVGALYADLVLRMVGAEPSGATAQR | not soluble
MGSDKIHHHHHHMRITSIFLFTIIIFGGLSCSNDDSLIHNKTKGILEKYPEPTVTITAHNHIPFLAKNILEEKAITKSVNIISDIAWANGFGRTITARSDEMVIPDNMNRYIYPGSILEASSIAETRFTPIPVKNNPVHVSVSFPAKKVGGTIKEPSLLNIRQFVMDLMQQNNIGKQSATLSFDVQKFVSYDELKMTFGSNENTGLLFWGTSSAQYQNKYRIIRSSGLCIKFIQKYFTLDMDIPSNGLISGTIPGGYSPVYVSSIAYGRIGILTLETNYDYEKANKLVKETFNSLFINKNNTLTKEQEAFFNSAEMKVFIAGGSGVTGVKTIGGIKEFTNYITEGGEFSASSPGKPIFCSFANYSDDSPYRINFKIDIDSDPVYARLEYDITKDVSGGNVKSWYTDANVYLRFYADKACSIKTIAQNYIGFNINRLILQQYVGPNYSVSKAREVKLDQNLTFHNQTKGIEYPIAYGHRMTETIGTTYLDRGNWTNDHFYLRAGKFYQVRPPINMKYTCFIDYHNQNEYDCSDFE | not soluble
GSDPGPEAARLRFRCFHYEEATGPQEALAQLRELCRQWLRPEVRSKEQMLELLVLEQFLGALPPEIQARVQGQRPGSPEEAAALVDGLRREPGG | soluble
LRYNLWFGVYDGKEIKLSENFEESFLKAENPSPLPFNVSEVGAKALGKDYYRILRKTALAVSEKMVEKELRREDRYVVALVKALEEIDESINMLNEKLEDIRAVKESEITEKFEKKIRELRELRRDVEREIEEVMEKIAPNMTELVGAKVAAKLLERAGSMERLVRLPASKIQVIGAEKSLYKAFARMKKGKKAKIPKHGIIFLHPFIRTLPKAKRGKMARFLAAKLAIAAKIDYFRGEIDESLYESIRRRYEELRRK | soluble
MGSDKIHHHHHHMRLNPERPLLSGSCTQYLDWGLPIAMDAVGPGEARRILDRYGADRVLLVGPPGVGKSTVVRSYAEDSASREGLEFVDLSEARSLEDLDTDSTYAFLHIYAPLVRAEDLAFIARRGEGYDWTLPSRLAYLTRPGVRGLVFIDEITNVALPEVQTILFSMVLDKRVAYNRLSSGVEVVAAGNSPRDSPVSQWPPPPLLDRFRLLIRVKPPDLEEWVSWMNSVGRPWDRRVAAVLKVKPVLMYRPPEDEEDKFPTPRSWSQLAWELAKTGAHGDEAVRIAAMVVGRRAAEEARQFLQPDPASLDLSTFPRLDERERLTLLSVEAGRLASQDVVELCRTLEKVGSYGAHYAVWLLMLSGVDTVEAARSCSYVEDLLSRLSSYLG | not soluble
MGSDKIHHHHHHMHPKNAWYVACTADEVADKPLGRQICNEKMVFYRDQNQQVVAVEDFCPHRGAPLSLGYVENGQLVCGYHGLVMGGDGKTASMPGQRVRGFPCNKTFAAIERYGFIWVWPGEREKADPALIHHLEWAVSDEWAYGGGLFHIQCDYRLMIDNLMDLTHETYVHASSIGQKEIDEAPPVTTVEGEEVITARHMENIMPPPFWKMALRGNNLADDVPVDRWQICRFTPPSHVLIEVGVAHAGKGGYHAPHEFKASSIVVDFITPETDTSIWYFWGMARNFKPADEQLTATIREGQHKIFSEDLEMLERQQLNLLQHPHRNLLKLNIDAGGVQSRKILERLIAAEQADTADQIPVAAVK | not soluble
MGSDKIHHHHHHMTTESIAVLVIDDDPAILQNIVCYLEDSDFICFGAADGAAGIETFERERPDAVIVDLNMPGMNGRDVIARINAQSPTTPVIVVSGTGVIDEAVESMRVGAWDFLSKPVRRMEELENAVRAGLRRARTMRESNEYKETLERMVKRRTRELQLANDRTEAILLATVQSLSTVINLKDAYTGTHQQRVALIAPAIAEELGMEQRAVEAVRLAALLHDVGKMGLPSEFLTKPSRLDANEMQFIRQHPQLGYDILKDIPFELPIPEMVLQHHERLDGSGYPRGLAGDDILPEARILAVADTVEAICSHRPWRPAHPFSHALHELTAGKNTLYCPDAVNSCIDLITRGDPRLTTFTATIKGLPS | not soluble
MIRTLELAPHIEGGYFRQTKKASDTINLAGKGRALYTSIYFLLEETNPSHFHRLTADEIWYFHAGSPLTVHMITADGHYEAVTLGLDISKGQQLHYCVPKGTIWGSTVDKDDALVSCLVAPGFEFEDFELFERVDLLATYPEHKEMIERLTRYLEHHHHHH | not soluble
